Consider one protein from publication PMC3136518, “Single-Molecule Fluorescence Polarization Study of Conformational Change in Archaeal Group II Chaperonin” (PLoS ONE, 2011).

The series concerns the molecule itself. In words: rotary-shadowing electron microscopy; chaperonin (50 µg/mL) directly immobilised on plasma-cleaned coverslip, washed with HKM buffer [25 mM HEPES-KOH (pH 7.4), 100 mM KCl, 5 mM MgCl2] and 50% glycerol, shadowed at 5° with platinum and carbon; coverslip without chaperonin as negative control.

B1: αD263C/Q271C/C366S-His, the double-cysteine mutant of Thermococcus sp. strain KS-1 (T. KS-1) α chaperonin with internal hexahistidine tags (complex, UniProt P61112 1-548, looked up)
chain: MAQLSGQPVVILPEGTQRYVGRDAQRLNILAARIIAETVRTTLGPKGMDKMLVDSLGDIVVTNDGATILDKIDLQHPAAKMMVEVAKTQDKEAGDGTTTAVVIAGELLRKAEELLDQNIHPSIIIKGYALAAEKAQEILDEIAIRVDPDDEETLLKIAATSITGKNAESHKELLAKLAVEAVKQVAEKKDGKYVVDLDNIKFEKKAGEGVEESELVRGVVIDKEVVHPRMPKRVENAKIALINEALEVKKTETDAKINITSPCQLMSFLECEEKMLKDMVDHIAQTGANVVFVQKGIDDLAQHYLAKYGIMAVRRVKKSDMEKLAKATGAKIVTNVKDLTPEDLGYAEVVEERKLAGENMIFVEGSKNPKAVTILIRGGTEHVIDEVERALEDAVKVVKDVMEDGAVLPAGGAPEIELAIRLDEYAKQVGGKEALAIENFADALKIIPKTLAENAGLDTVEMLVKVISEHKNRGLGIGIDVFEGKPADMLEKGIIEPLRVKKQAIKSASEAAIMILRIDDVIAAKATKPEGGQGGGMPGGMGGMDMGM
notes: Group II chaperonin (thermosome) α subunit of Thermococcus sp. strain KS-1, amino acids 1-548, the entire α subunit amplified from plasmid pK1Eα2; hexa-histidine inserted between Val146 and Asp147; Homo-oligomeric double ring; The results call the sample of the electron microscopy BSR-CPN (cysteines 263 and 271 cross-linked by BSR, about 0.3 dye per hexadecamer); the methods name the unlabelled …
For the protein B1, the binding result was “binds”.
